Broadly, the Kd is the equilibrium constant for the complex coming apart. High values mean weaker binding, low ones tighter binding. As a reminder, the koff is the rate constant with which the complex falls apart. High values mean a short-lived complex, low ones a long-lived complex.

Assay [1] deals with ^CFPCul1–Rbx1 (UniProt Q13616 1-776; P62877 1-108). Put plainly: FRET or BRET.
Assay [2] deals with GST-Rbx1–Cul1 (UniProt P62877 1-108; Q13616 1-776). Put plainly: pull-down.
Chain of GST-Rbx1–Cul1 (P62877 whole entry, chain 1 of 2): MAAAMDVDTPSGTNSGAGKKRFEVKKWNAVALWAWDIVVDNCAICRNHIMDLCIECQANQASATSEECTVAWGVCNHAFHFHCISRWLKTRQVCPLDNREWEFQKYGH
Chain of GST-Rbx1–Cul1 (Q13616 whole entry, chain 2 of 2): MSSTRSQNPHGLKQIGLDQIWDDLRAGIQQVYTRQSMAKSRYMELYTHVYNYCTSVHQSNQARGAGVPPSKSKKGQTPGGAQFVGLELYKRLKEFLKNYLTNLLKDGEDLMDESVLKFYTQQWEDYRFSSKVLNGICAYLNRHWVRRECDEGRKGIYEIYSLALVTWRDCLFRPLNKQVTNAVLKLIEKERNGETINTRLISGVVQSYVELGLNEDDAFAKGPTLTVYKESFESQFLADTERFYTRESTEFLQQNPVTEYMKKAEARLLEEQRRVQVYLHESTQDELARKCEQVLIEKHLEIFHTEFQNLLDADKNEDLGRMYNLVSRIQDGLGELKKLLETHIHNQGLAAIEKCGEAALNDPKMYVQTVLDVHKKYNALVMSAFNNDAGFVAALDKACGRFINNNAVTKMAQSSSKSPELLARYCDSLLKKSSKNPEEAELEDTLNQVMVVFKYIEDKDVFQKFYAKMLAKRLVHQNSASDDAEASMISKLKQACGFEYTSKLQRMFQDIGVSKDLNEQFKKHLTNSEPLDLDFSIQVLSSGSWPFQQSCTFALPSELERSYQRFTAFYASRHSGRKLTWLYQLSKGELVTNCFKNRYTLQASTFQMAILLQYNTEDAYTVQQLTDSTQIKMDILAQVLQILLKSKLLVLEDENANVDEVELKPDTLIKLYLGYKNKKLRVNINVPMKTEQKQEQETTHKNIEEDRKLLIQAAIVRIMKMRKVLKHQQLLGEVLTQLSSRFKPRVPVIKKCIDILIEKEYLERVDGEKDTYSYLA

Chain of ^CFPCul1–Rbx1 (Q13616 whole entry, chain 1 of 2): as the sequence (Q13616 whole entry, chain 2 of 2) above
Chain of ^CFPCul1–Rbx1 (P62877 whole entry, chain 2 of 2): as the sequence (P62877 whole entry, chain 1 of 2) above

B1: Cullin-associated and neddylation-dissociated protein 1 (Cand1) (natural protein, UniProt Q86VP6 1-1230, looked up)
chain: MASASYHISNLLEKMTSSDKDFRFMATNDLMTELQKDSIKLDDDSERKVVKMILKLLEDKNGEVQNLAVKCLGPLVSKVKEYQVETIVDTLCTNMLSDKEQLRDISSIGLKTVIGELPPASSGSALAANVCKKITGRLTSAIAKQEDVSVQLEALDIMADMLSRQGGLLVNFHPSILTCLLPQLTSPRLAVRKRTIIALGHLVMSCGNIVFVDLIEHLLSELSKNDSMSTTRTYIQCIAAISRQAGHRIGEYLEKIIPLVVKFCNVDDDELREYCIQAFESFVRRCPKEVYPHVSTIINICLKYLTYDPNYNYDDEDEDENAMDADGGDDDDQGSDDEYSDDDDMSWKVRRAAAKCLDAVVSTRHEMLPEFYKTVSPALISRFKEREENVKADVFHAYLSLLKQTRPVQSWLCDPDAMEQGETPLTMLQSQVPNIVKALHKQMKEKSVKTRQCCFNMLTELVNVLPGALTQHIPVLVPGIIFSLNDKSSSSNLKIDALSCLYVILCNHSPQVFHPHVQALVPPVVACVGDPFYKITSEALLVTQQLVKVIRPLDQPSSFDATPYIKDLFTCTIKRLKAADIDQEVKERAISCMGQIICNLGDNLGSDLPNTLQIFLERLKNEITRLTTVKALTLIAGSPLKIDLRPVLGEGVPILASFLRKNQRALKLGTLSALDILIKNYSDSLTAAMIDAVLDELPPLISESDMHVSQMAISFLTTLAKVYPSSLSKISGSILNELIGLVRSPLLQGGALSAMLDFFQALVVTGTNNLGYMDLLRMLTGPVYSQSTALTHKQSYYSIAKCVAALTRACPKEGPAVVGQFIQDVKNSRSTDSIRLLALLSLGEVGHHIDLSGQLELKSVILEAFSSPSEEVKSAASYALGSISVGNLPEYLPFVLQEITSQPKRQYLLLHSLKEIISSASVVGLKPYVENIWALLLKHCECAEEGTRNVVAECLGKLTLIDPETLLPRLKGYLISGSSYARSSVVTAVKFTISDHPQPIDPLLKNCIGDFLKTLEDPDLNVRRVALVTFNSAAHNKPSLIRDLLDTVLPHLYNETKVRKELIREVEMGPFKHTVDDGLDIRKAAFECMYTLLDSCLDRLDIFEFLNHVEDGLKDHYDIKMLTFLMLVRLSTLCPSAVLQRLDRLVEPLRATCTTKVKANSVKQEFEKQDELKRSAMRAVAALLTIPEAEKSPLMSEFQSQISSNPELAAIFESIQKDSSSTNLESMDTS
Consider B1, for which, in assay [1], the equilibrium dissociation constant (Kd) is not above 53 nM.

B2: Cand1^TAMRA (natural protein, UniProt Q86VP6 1-1230, looked up)
chain: B1 chain
modifications: TAMRA (site not stated)
Regarding B2, in assay [2], the koff was found to be 1.2e-05 s⁻¹.

For the origin of these results see article PMC3656483 (Cell, 2013).
